Experimental data from publication PMC4701441, “Directed Evolution of a Highly Specific FN3 Monobody to the SH3 Domain of Human Lyn Tyrosine Kinase” (PLoS ONE, 2016).

Molecular target: T1, GST-Lyn SH3 domain (human, UniProt P07948 63-123)
T1 construct: SH3 domain of human Lyn tyrosine kinase; Plasmid derived from pGEX-2T; also called GST fusion to the SH3 domain of Lyn
Experiment: ELISA; competition ELBA: GST-Lyn SH3 domain coated at 5 μg/mL, peptide at 0.1 μM to 40 μM added along with TA8-alkaline phosphatase fusion for 1 h
Details: both partners purified

T1 sequence (P07948 63-123): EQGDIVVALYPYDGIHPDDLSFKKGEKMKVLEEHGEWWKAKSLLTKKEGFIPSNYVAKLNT

GMPTPPLPPRPANLGERQA
binding result: binds
